Patent publication US20220048967A1 (published 2022)
Numbering of substitutions follows the chain as printed. Numbered stars: 1 amine (or outer) side, 2 acyl side, 3 side chain; on linkers, the order of the positions; unused ones are H or OH. Square brackets hold non-standard residues; d marks the D form. Side chains are listed from the residue outwards. Ends that are not written are not given here. * marks the point of attachment. C20 diacid = O=C(O)CCCCCCCCCCCCCCCCCCC(=O)*; C18 diacid = O=C(O)CCCCCCCCCCCCCCCCC(=O)*; αMePhe(2-F) = C[C@](N)(Cc1ccccc1F)C(=O)O; γGlu = O=C(O)[C@H](CCC(=O)[*:2])N[*:1]; Desaminohistidyl = O=C(CCc1c[nH]cn1)*; Desaminotyrosyl = O=C(CCc1ccc(O)cc1)*; αMeF = C[C@](N)(Cc1ccccc1)C(=O)O; αMeP = C[C@@]1(C(=O)O)CCCN1; AEEA = NCCOCCOCC(=O)O; Aib = CC(C)(N)C(=O)O

T1: human gastric inhibitory peptide receptor (GIPR) (human, UniProt P48546 22-466)
T1 sequence (looked up): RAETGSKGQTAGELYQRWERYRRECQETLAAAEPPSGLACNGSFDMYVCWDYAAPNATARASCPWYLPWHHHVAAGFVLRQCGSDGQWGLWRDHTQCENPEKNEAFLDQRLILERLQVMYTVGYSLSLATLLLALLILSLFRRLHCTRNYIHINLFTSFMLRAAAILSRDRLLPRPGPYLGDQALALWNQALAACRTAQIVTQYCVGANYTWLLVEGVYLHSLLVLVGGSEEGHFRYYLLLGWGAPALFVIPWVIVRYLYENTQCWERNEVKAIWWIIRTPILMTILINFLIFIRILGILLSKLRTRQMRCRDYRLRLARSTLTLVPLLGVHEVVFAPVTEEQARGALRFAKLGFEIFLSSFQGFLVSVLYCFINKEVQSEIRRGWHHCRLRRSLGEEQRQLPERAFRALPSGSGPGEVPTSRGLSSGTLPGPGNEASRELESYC

B1: Example 224 (peptide)
peptide: YXEGTXTSDYSIXLDEKAQXEFIXYLIEGGPSSGAPPPS
modifications: Y-Aib-EGT-αMeF(2F)-TSDYSI-Aib-LDEK((2-[2-(2-Amino-ethoxy)-ethoxy]-acetyl)2-(γ-Glu)-CO-(CH2)18-CO2H)AQ-Aib-EFI-(D-Glu)-YLIEGGPSSGAPPPS-NH2
B2: Example 234 (peptide)
peptide: B1 peptide with Y10X, X13L, E16X
modifications: Y-Aib-EGT-αMeF(2F)-TSD-4Pal-SILLD-Dab-K((2-[2-(2-Amino-ethoxy)-ethoxy]-acetyl)2-(γ-Glu)-CO-(CH2)16-CO2H)AQ-Aib-EFI-(D-Glu)-YLIEGGPSSGAPPPS-NH2
B3: Example 197 (peptide)
peptide: Y[αMeP]EGTFTSDYSILLDEK([AEEA-AEEA-γGlu-C18 diacid])AQQAFIEYLIEGGPSSG-NH2
modifications: N-terminus assumed
SMILES: CC[C@H](C)[C@H](NC(=O)[C@H](CC(C)C)NC(=O)[C@H](Cc1ccc(O)cc1)NC(=O)[C@H](CCC(=O)O)NC(=O)[C@@H](NC(=O)[C@H](Cc1ccccc1)NC(=O)[C@H](C)NC(=O)[C@H](CCC(N)=O)NC(=O)[C@H](CCC(N)=O)NC(=O)[C@H](C)NC(=O)[C@H](CCCCNC(=O)COCCOCCNC(=O)COCCOCCNC(=O)CC[C@H](NC(=O)CCCCCCCCCCCCCCCCC(=O)O)C(=O)O)NC(=O)[C@H](CCC(=O)O)NC(=O)[C@H](CC(=O)O)NC(=O)[C@H](CC(C)C)NC(=O)[C@H](CC(C)C)NC(=O)[C@@H](NC(=O)[C@H](CO)NC(=O)[C@H](Cc1ccc(O)cc1)NC(=O)[C@H](CC(=O)O)NC(=O)[C@H](CO)NC(=O)[C@@H](NC(=O)[C@H](Cc1ccccc1)NC(=O)[C@@H](NC(=O)CNC(=O)[C@H](CCC(=O)O)NC(=O)[C@]1(C)CCCN1C(=O)[C@@H](N)Cc1ccc(O)cc1)[C@@H](C)O)[C@@H](C)O)[C@@H](C)CC)[C@@H](C)CC)C(=O)N[C@@H](CCC(=O)O)C(=O)NCC(=O)NCC(=O)N1CCC[C@H]1C(=O)N[C@@H](CO)C(=O)N[C@@H](CO)C(=O)NCC(N)=O
B4: Example 198 (peptide)
peptide: [dY][αMeP]EGTFTSDYSILLDEK([AEEA-AEEA-γGlu-C18 diacid])AQQAFIEYLIEGGPSSG-NH2
modifications: N-terminus assumed
SMILES: CC[C@H](C)[C@H](NC(=O)[C@H](CC(C)C)NC(=O)[C@H](Cc1ccc(O)cc1)NC(=O)[C@H](CCC(=O)O)NC(=O)[C@@H](NC(=O)[C@H](Cc1ccccc1)NC(=O)[C@H](C)NC(=O)[C@H](CCC(N)=O)NC(=O)[C@H](CCC(N)=O)NC(=O)[C@H](C)NC(=O)[C@H](CCCCNC(=O)COCCOCCNC(=O)COCCOCCNC(=O)CC[C@H](NC(=O)CCCCCCCCCCCCCCCCC(=O)O)C(=O)O)NC(=O)[C@H](CCC(=O)O)NC(=O)[C@H](CC(=O)O)NC(=O)[C@H](CC(C)C)NC(=O)[C@H](CC(C)C)NC(=O)[C@@H](NC(=O)[C@H](CO)NC(=O)[C@H](Cc1ccc(O)cc1)NC(=O)[C@H](CC(=O)O)NC(=O)[C@H](CO)NC(=O)[C@@H](NC(=O)[C@H](Cc1ccccc1)NC(=O)[C@@H](NC(=O)CNC(=O)[C@H](CCC(=O)O)NC(=O)[C@]1(C)CCCN1C(=O)[C@H](N)Cc1ccc(O)cc1)[C@@H](C)O)[C@@H](C)O)[C@@H](C)CC)[C@@H](C)CC)C(=O)N[C@@H](CCC(=O)O)C(=O)NCC(=O)NCC(=O)N1CCC[C@H]1C(=O)N[C@@H](CO)C(=O)N[C@@H](CO)C(=O)NCC(N)=O
B5: Example 219 (peptide)
peptide: Y[Aib]EGT[αMePhe(2-F)]TSDYSIXLDEK([AEEA-AEEA-γGlu-C18 diacid])AQ[Aib]EFI[dE]YLIEGGPSSG-NH2
modifications: not fully specified (residue 13); printed as Y-Aib-EGT-αMeF(2F)-TSDYSI-αMeF-LDEK((2-[2-(2-Amino-ethoxy)-ethoxy]-acetyl)2-(γ-Glu)-CO-(CH2)16-CO2H)AQ-Aib-EFI-(D-Glu)-YLIEGGPSSG-NH2
B6: Example 220 (peptide)
peptide: Y[Aib]EGT[αMePhe(2-F)]TSDYSIXLDEK([AEEA-AEEA-γGlu-C18 diacid])AQ[Aib]EFI[dE]YLIEGG-NH2
modifications: not fully specified (residue 13); printed as Y-Aib-EGT-αMeF(2F)-TSDYSI-αMeF-LDEK((2-[2-(2-Amino-ethoxy)-ethoxy]-acetyl)2-(γ-Glu)-CO-(CH2)16-CO2H)AQ-Aib-EFI-(D-Glu)-YLIEGG-NH2
B7: Example 228 (peptide)
peptide: Y[Aib]EGT[αMeF]TSDYSIXLDKK([AEEA-AEEA-γGlu-C20 diacid])AQ[Aib]EFI[dE]YLIEGGPSSG-NH2
modifications: not fully specified (residue 13); printed as Y-Aib-EGT-αMeF-TSDYSI-αMeF-LDKK((2-[2-(2-Amino-ethoxy)-ethoxy]-acetyl)2-(γ-Glu)-CO-(CH2)18-CO2H)AQ-Aib-EFI-(D-Glu)-YLIEGGPSSG-NH2
B8: Example 1 (peptide)
peptide: B1 peptide
modifications: Aib2, αMeF(2F)6, αMeL13, K17 conjugated to (2-[2-(2-Amino-ethoxy)-ethoxy]-acetyl)2-(γ-Glu)-CO-(CH2)18-CO2H, Aib20, D-Glu24, C-terminal amide (NH2)
B9: Example 4 (peptide)
peptide: B1 peptide with Y10X, E16X, Y25X
modifications: Aib2, αMeF(2F)6, 4Pal10, αMeL13, Orn16, K17 conjugated to (2-[2-(2-Amino-ethoxy)-ethoxy]-acetyl)2-(γ-Glu)-CO-(CH2)16-CO2H, Aib20, D-Glu24, αMeY25, C-terminal amide (NH2)
B10: Example 2 (peptide)
peptide: B1 peptide with E16X
modifications: Aib2, αMeF(2F)6, αMeL13, Orn16, K17 conjugated to (2-[2-(2-Amino-ethoxy)-ethoxy]-acetyl)2-(γ-Glu)-CO-(CH2)16-CO2H, Aib20, D-Glu24, C-terminal amide (NH2)
B11: Example 356 (peptide)
peptide: B1 peptide with Y1X, X6F, E16K, E21A
modifications: D-Tyr1, Aib2, αMeL13, K17 conjugated to (2-[2-(2-Amino-ethoxy)-ethoxy]-acetyl)2-(γ-Glu)-CO-(CH2)18-CO2H, Aib20, D-Glu24, C-terminal amide (NH2)
B12: Example 357 (peptide)
peptide: B1 peptide with Y1X, X6F, E16X, E21A
modifications: D-Tyr1, Aib2, αMeL13, Orn16, K17 conjugated to (2-[2-(2-Amino-ethoxy)-ethoxy]-acetyl)2-(γ-Glu)-CO-(CH2)18-CO2H, Aib20, D-Glu24, C-terminal amide (NH2)
B13: Example 338 (peptide)
peptide: FXEGTFTSDYSIXLDKKAQXEFIEYLIAGGPSSGAPPPS
modifications: not fully specified; Aib2, αMeL13, K17 conjugated to (2-[2-(2-Amino-ethoxy)-ethoxy]-acetyl)2-(γ-Glu)-CO-(CH2)18-CO2H, Aib20, C-terminal amide (NH2)
B14: Example 361 (peptide)
peptide: B13 peptide with F1X, E21A, I23V, E24X
modifications: D-Tyr1, Aib2, αMeL13, K17 conjugated to (2-[2-(2-Amino-ethoxy)-ethoxy]-acetyl)2-(γ-Glu)-CO-(CH2)18-CO2H, Aib20, D-Glu24, C-terminal amide (NH2)
B15: Example 360 (peptide)
peptide: XXEGTFTSDYSIXLDXKAQXAFVEYLIEGGPSSGAPPPS
modifications: D-Tyr1, Aib2, αMeL13, Orn16, K17 conjugated to (2-[2-(2-Amino-ethoxy)-ethoxy]-acetyl)2-(γ-Glu)-CO-(CH2)18-CO2H, Aib20, C-terminal amide (NH2)
B16: Example 362 (peptide)
peptide: B15 peptide with E24X, E28A
modifications: D-Tyr1, Aib2, αMeL13, Orn16, K17 conjugated to (2-[2-(2-Amino-ethoxy)-ethoxy]-acetyl)2-(γ-Glu)-CO-(CH2)18-CO2H, Aib20, D-Glu24, C-terminal amide (NH2)
B17: Example 364 (peptide)
peptide: B15 peptide with E24X, E28A
modifications: D-Tyr1, Aib2, αMeL13, Orn16, K17 conjugated to (2-[2-(2-Amino-ethoxy)-ethoxy]-acetyl)2-(γ-Glu)-CO-(CH2)16-CO2H, Aib20, D-Glu24, C-terminal amide (NH2)

Molecular target: T1, human gastric inhibitory peptide …
Experiment: cell-based or functional assay

| Binder | hGIPR cAMP EC50 ratio | hGIPR cAMP Rel EC50 [nM] |
| --- | --- | --- |
| B1 | 3.52 | 0.0545 |
| B2 | 3.83 | 0.0372 |
| B3 | 0.855 | 0.211 |
| B4 | < 0.00602 | > 30 |
| B5 | 5.86 | 0.0341 |
| [Desaminotyrosyl][Aib]EGTFTSDYSILLDEK([AEEA-AEEA-γGlu-C20 diacid])AQQAFIEYLIEGGPSSGAPPPS-NH2 [Example 199] | < 0.00602 | > 30 |
| [Desaminohistidyl][αMeP]EGTFTSDYSILLDEK([AEEA-AEEA-γGlu-C20 diacid])AQQAFIEYLIEGGPSSGAPPPS-NH2 [Example 201] | < 0.00602 | > 30 |
| B6 | 6.3 | 0.0315 |
| [Desaminotyrosyl]AEGTFTSDYSILLDEK([AEEA-AEEA-γGlu-C20 diacid])AQQAFIEYLIEGGPSSGAPPPS-NH2 [Example 200] | 0.0146 | 12.3 |
| B7 | 3.86 | 0.0503 |

Molecular target: human GLP-1 receptor (GLP-1R) (human, UniProt P43220 24-463)
Experiment: cell-based or functional assay

| Binder | hGLP1R cAMP EC50 ratio | hGLP1R cAMP Rel EC50 [nM] |
| --- | --- | --- |
| B1 | 1.06 | 0.0349 |
| B2 | 0.317 | 0.0926 |
| B3 | 0.189 | 0.248 |
| B4 | 0.337 | 0.139 |
| B5 | 1.03 | 0.0403 |
| [Desaminotyrosyl][Aib]EGTFTSDYSILLDEK([AEEA-AEEA-γGlu-C20 diacid])AQQAFIEYLIEGGPSSGAPPPS-NH2 [Example 199] | 1.11 | 0.0422 |
| [Desaminohistidyl][αMeP]EGTFTSDYSILLDEK([AEEA-AEEA-γGlu-C20 diacid])AQQAFIEYLIEGGPSSGAPPPS-NH2 [Example 201] | 1.22 | 0.0385 |
| B6 | 1.36 | 0.0312 |
| [Desaminotyrosyl]AEGTFTSDYSILLDEK([AEEA-AEEA-γGlu-C20 diacid])AQQAFIEYLIEGGPSSGAPPPS-NH2 [Example 200] | 0.573 | 0.0818 |
| B7 | 1.1 | 0.0282 |

Molecular target: human GLP-1 receptor (human, UniProt P43220 24-463)
Experiment: cell-based or functional assay

| Binder | hGLP1R GTPgS % Top [%] | hGLP1R GTPgS Rel EC50 [nM] |
| --- | --- | --- |
| B8 | 91.1 | 0.235 |
| B9 | 86.9 | 0.245 |
| B10 | 95.9 | 0.642 |

Molecular target: Pro-Link-tagged Human GLP-1R (human, UniProt P43220 24-463)
Experiment: cell-based or functional assay

| Binder | hGLP1R B-Arrestin2 % Top [%] | hGLP1R B-Arrestin2 Rel EC50 [nM] |
| --- | --- | --- |
| B8 | 105 | 5 |
| B11 |  | > 10500 |
| B9 | 92.4 | 4.8 |
| B10 | 96.1 | 8.82 |
| B12 | 18.2 | 118 |
| B13 | 47 | 18.9 |
| B14 | 20.2 | 269 |
| B15 | 25.8 | 39.5 |
| B16 |  | > 11000 |
| B17 |  | > 12000 |
